Results reported in article PMC8064889.
pKd: −log10 of the molar value.

Target: SARS-CoV-2 RBD, His6-tagged, for biolayer interferometry (SARS-CoV-2) (UniProt P0DTC2)
Assay: BLI

Q: CR3022 Fab was tested. Which pKd did it give?
A: 7.33
